Experimental data published in article PMC10547193.

What was measured:
[1] = target: CVA10-N142A viral particles (coxsackievirus A10 strain Kowalik with VP2 N142A) (coxsackievirus A10 (strain Kowalik))
[2] = target: CVA10 escape mutant N2142D+N3183Y (coxsackievirus A10 strain Kowalik with VP2 N142D and VP3 N183Y) (coxsackievirus A10 (strain Kowalik))
[3] = target: CVA10-WT viral particles (coxsackievirus A10 prototype strain Kowalik, mature virion) (coxsackievirus A10 (strain Kowalik))

B1: human KRM1-Fc (ectodomain of human KREMEN1 fused to the Fc portion of human IgG1) (Fc fusion)
chain: APSPGLGPECFTANGADYRGTQNWTALQGGKPCLFWNETFQHPYNTLKYPNGEGGLGEHNYCRNPDGDVSPWCYVAEHEDGVYWKYCEIPACQMPGNLGCYKDHGNPPPLTGTSKTSNKLTIQTCISFCRSQRFKFAGMESGYACFCGNNPDYWKYGEAASTECNSVCFGDHTQPCGGDGRIILFDTLVGACGGNYSAMSSVVYSPDFPDTYATGRVCYWTIRVPGASHIHFSFPLFDIRDSADMVELLDGYTHRVLARFHGRSRPPLSFNVSLDFVILYFFSDRINQAQGFAVLYQAVKEELPQERPAVNQTVAEVITEQANLSVSAARSSKVLYVITTSPSHPPQTVPG
modifications: biotin (EZ-Link Sulfo-NHS-LC-LC-Biotin) in the ELISA
resistance to neutralization by KRM1-Fc relative to rescued CVA10-WT (neutralization assay, RD cells) [1]: 64 fold
change of the neutralization concentration of KRM1-Fc against the mutant relative to CVA10-WT (standard neutralization assay, RD cells) [2]: > 128 times
neutralization concentration (100% protection from CPE) of KRM1-Fc against CVA10 prototype strain Kowalik in RD cells [3]: 12.5 nM
